Reference: patent US20120316071A1 (published 2012)

Assays:
[1] = target: T1, rHuman Notch-1/Fc Chimera, CF (R&D Systems Cat#3647-TK) (human, UniProt P46531 19-526); experiment: ECL multispot (MSD), 20 nM Fab;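 note: purified Fab binding to antigens on multispot plates, read by electrochemiluminescence with a TAG-labelled detection antibody, 1 h Fab incubation at 20 °C, signal expressed relative to each well's blank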
T1 construct: Bought recombinant protein; Fc part of the bought chimera not given

[2] = target: T2, rHuman Erythropoietin R/Fc Chimera, CF (R&D Systems Cat#963-ER) (human, UniProt P19235 25-250); experiment: ECL multispot (MSD), 20 nM Fab;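 note: purified Fab binding to antigens on multispot plates, read by electrochemiluminescence with a TAG-labelled detection antibody, 1 h Fab incubation at 20 °C, signal expressed relative to each well's blank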
T2 construct: Bought recombinant protein; also called EPO R; EPO R/Fc; Fc part of the bought chimera not given
T2 sequence (looked up): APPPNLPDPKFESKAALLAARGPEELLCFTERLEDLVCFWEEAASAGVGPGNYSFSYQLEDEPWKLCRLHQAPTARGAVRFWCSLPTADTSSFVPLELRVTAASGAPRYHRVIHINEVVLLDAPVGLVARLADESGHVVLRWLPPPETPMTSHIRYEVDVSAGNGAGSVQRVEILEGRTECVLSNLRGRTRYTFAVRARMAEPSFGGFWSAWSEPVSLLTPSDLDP

[3] = target: T3, Recombinant Human DLL4 (R&D Systems Cat#1506-D4/CF) (human, UniProt Q9NR61 27-524); experiment: ECL multispot (MSD), 20 nM Fab;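 note: purified Fab binding to antigens on multispot plates, read by electrochemiluminescence with a TAG-labelled detection antibody, 1 h Fab incubation at 20 °C, signal expressed relative to each well's blank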
T3 construct: Bought recombinant protein; also called delta-like protein 4; rHuman DLL4

[4] = target: T4, rHuman IGF-1 sR, (IGF-1 sR), CF (R&D Systems Cat#391-GR) (human, UniProt P08069 31-932); experiment: ECL multispot (MSD), 20 nM Fab;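 note: purified Fab binding to antigens on multispot plates, read by electrochemiluminescence with a TAG-labelled detection antibody, 1 h Fab incubation at 20 °C, signal expressed relative to each well's blank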
T4 construct: Bought recombinant soluble receptor; also called insulin-like growth factor-1 soluble receptor

[5] = target: T5, rHuman P-Cadherin/Fc Chimera, CF (R&D Systems Cat#861-PC) (human, UniProt P22223 108-654); experiment: ECL multispot (MSD), 20 nM Fab
T5 construct: Bought recombinant protein; Fc part of the bought chimera not given

[6] = target: T6, rHuman CD44/Fc Chimera, CF (R&D Systems Cat#3660-CD) (human, UniProt P16070 21-220); experiment: ECL multispot (MSD), 20 nM Fab
T6 construct: Bought recombinant protein; Fc part of the bought chimera not given

[7] = target: T7, rHuman HGF R/c-MET/Fc Chimera, CF (R&D Systems Cat#358-MT/CF) (human, UniProt P08581 25-932); experiment: ECL multispot (MSD), 20 nM Fab
T7 construct: Bought recombinant protein; also called HGF R/Fc; hepatocyte growth factor receptor; Fc part of the bought chimera not given

[8] = target: T8, rHuman EGF R/Fc Chimera, CF (R&D Systems Cat#344-ER) (human, UniProt P00533 25-645); experiment: ECL multispot (MSD), 20 nM Fab
T8 construct: Bought recombinant protein; also called epidermal growth factor receptor; Fc part of the bought chimera not given

[9] = target: T9, rHuman ErbB2/Fc Chimera, CF (R&D Systems Cat#1129-ER) (human, UniProt P04626 23-652); experiment: ECL multispot (MSD), 20 nM Fab
T9 construct: Bought recombinant protein; also called human epidermal growth factor 2 receptor; Fc part of the bought chimera not given

[10] = target: T10, rHuman Notch-1/Fc Chimera, CF (R&D Systems Cat#3647-TK) (human, UniProt P46531 19-526); experiment: ECL multispot (MSD) binding assay, antigens spotted on plate, 20 nM Fab;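 note: fab incubated 1 h at 20 °C on antigen-spotted wells, bound Fab detected by TAG-labelled antibody, ratio of 4 or more over blank counted as a hit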
T10 construct: Bought recombinant protein; Fc part of the bought chimera not given

[11] = target: T11, rHuman CD44/Fc Chimera, CF (R&D Systems Cat#3660-CD) (human, UniProt P16070 21-220); experiment: as above
T11 construct: Bought recombinant protein; Fc part of the bought chimera not given

[12] = target: T12, rHuman EGF R/Fc Chimera, CF (R&D Systems Cat#344-ER) (human, UniProt P00533 25-645); experiment: as above
T12 construct: Bought recombinant protein; also called epidermal growth factor receptor; Fc part of the bought chimera not given

[13] = target: T13, rHuman ErbB2/Fc Chimera, CF (R&D Systems Cat#1129-ER) (human, UniProt P04626 23-652); experiment: as above
T13 construct: Bought recombinant protein; also called human epidermal growth factor 2 receptor; Fc part of the bought chimera not given

[14] = target: T14, rHuman P-Cadherin/Fc Chimera, CF (R&D Systems Cat#861-PC) (human, UniProt P22223 108-654); experiment: as above
T14 construct: Bought recombinant protein; Fc part of the bought chimera not given

[15] = target: T15, Recombinant Human DLL4 (R&D Systems Cat#1506-D4/CF) (human, UniProt Q9NR61 27-524); experiment: as above
T15 construct: Bought recombinant protein; also called delta-like protein 4; rHuman DLL4

[16] = target: T16, rHuman HGF R/c-MET/Fc Chimera, CF (R&D Systems Cat#358-MT/CF) (human, UniProt P08581 25-932); experiment: as above
T16 construct: Bought recombinant protein; also called HGF R/Fc; hepatocyte growth factor receptor; Fc part of the bought chimera not given

[17] = target: T17, rHuman Erythropoietin R/Fc Chimera, CF (R&D Systems Cat#963-ER) (human, UniProt P19235 25-250); experiment: as above
T17 construct: Bought recombinant protein; also called EPO R; Epo R; Fc part of the bought chimera not given
T17 sequence (looked up): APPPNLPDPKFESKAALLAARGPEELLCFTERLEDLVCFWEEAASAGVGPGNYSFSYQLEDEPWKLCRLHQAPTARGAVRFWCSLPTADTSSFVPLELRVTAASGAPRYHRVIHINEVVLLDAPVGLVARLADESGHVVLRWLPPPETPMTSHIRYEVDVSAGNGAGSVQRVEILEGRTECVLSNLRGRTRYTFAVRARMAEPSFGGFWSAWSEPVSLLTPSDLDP

[18] = target: T18, rHuman IGF-1 sR, (IGF-1 sR), CF (R&D Systems Cat#391-GR) (human, UniProt P08069 31-932); experiment: as above
T18 construct: Bought recombinant soluble receptor; The column head prints only 'IGF-1'; also called insulin-like growth factor-1 soluble receptor

[19] = target: T19, rHuman Erythropoietin R/Fc Chimera, CF (R&D Systems Cat#963-ER) (human, UniProt P19235 25-250); experiment: Multispot ECL (MSD), antigen spotted on plate, Fab 360 nM; blank spot 462
T19 construct: Bought recombinant protein; also called EPO R/Fc; Epo R; Fc part of the bought chimera not given
T19 sequence (looked up): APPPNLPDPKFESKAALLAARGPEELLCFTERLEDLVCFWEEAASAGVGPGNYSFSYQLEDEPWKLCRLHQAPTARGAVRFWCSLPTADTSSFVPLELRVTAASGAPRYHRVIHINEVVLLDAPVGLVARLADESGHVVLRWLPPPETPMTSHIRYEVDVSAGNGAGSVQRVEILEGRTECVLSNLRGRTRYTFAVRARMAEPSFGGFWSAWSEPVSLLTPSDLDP

[20] = target: T20, rHuman CD44/Fc Chimera, CF (R&D Systems Cat#3660-CD) (human, UniProt P16070 21-220); experiment: as above
T20 construct: Bought recombinant protein; Fc part of the bought chimera not given

[21] = target: T21, rHuman P-Cadherin/Fc Chimera, CF (R&D Systems Cat#861-PC) (human, UniProt P22223 108-654); experiment: as above
T21 construct: Bought recombinant protein; Fc part of the bought chimera not given

[22] = target: T22, rHuman HGF R/c-MET/Fc Chimera, CF (R&D Systems Cat#358-MT/CF) (human, UniProt P08581 25-932); experiment: as above
T22 construct: Bought recombinant protein; also called HGF R/Fc; hepatocyte growth factor receptor (HGF R/c-Met); Fc part of the bought chimera not given

[23] = target: T23, rHuman IGF-1 sR, CF (R&D Systems Cat#391-GR) (human, UniProt P08069 31-932); experiment: as above
T23 construct: Bought recombinant soluble receptor; also called insulin-like growth factor-1 soluble receptor

[24] = target: T24, rHuman ErbB2/Fc Chimera, CF (R&D Systems Cat#1129-ER) (human, UniProt P04626 23-652); experiment: as above
T24 construct: Bought recombinant protein; also called human epidermal growth factor 2 receptor (ErbB2); Fc part of the bought chimera not given

[25] = target: T19, rHuman Erythropoietin R/Fc Chimera, CF …; experiment: Multispot ECL (MSD), antigen spotted on plate, Fab 36 nM; blank spot 413
[26] = target: T20, rHuman CD44/Fc Chimera, CF (R&D Systems …); experiment: as above
[27] = target: T21, rHuman P-Cadherin/Fc Chimera, CF (R&D …); experiment: as above
[28] = target: T22, rHuman HGF R/c-MET/Fc Chimera, CF (R&D …); experiment: as above
[29] = target: T23, rHuman IGF-1 sR, CF (R&D Systems …); experiment: as above
[30] = target: T24, rHuman ErbB2/Fc Chimera, CF (R&D …); experiment: as above

B1: Fab VH3-23_IGHD2-21*01>3_IGHJ6*01 H100E/S108P/Y113G (EPG) Y109P & V2-13_IGLJ2*01 (Fab, V domains shown)
VH: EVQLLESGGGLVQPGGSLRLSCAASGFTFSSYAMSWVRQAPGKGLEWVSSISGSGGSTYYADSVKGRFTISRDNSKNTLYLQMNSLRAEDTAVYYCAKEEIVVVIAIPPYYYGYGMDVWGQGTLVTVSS
VL: SSELTQDPAVSVALGQTVRITCQGDSLRSYYASWYQQKPGQAPVLVIYGKNNRPSGIPDRFSGSSSGNTASLTITGAQAEDEADYYCNSRDSSGNHLVVFGGGTKLTVL
notes: Fab; NNK mutant of the EPG heavy chain; CH1 (tags) and lambda CL come from the vectors
[1]
  ECL signal ratio (column head gives no unit): 1.1
[2]
  ECL signal ratio (column head gives no unit): 1.8
[3]
  ECL signal ratio (column head gives no unit): 1.6
[4]
  ECL signal ratio (column head gives no unit): 1.4
[5]
  ECL signal ratio (column head gives no unit): 1.9
[6]
  ECL signal ratio (column head gives no unit): 1.1
[7]
  ECL signal ratio (column head gives no unit): 1.8
[8]
  ECL signal ratio (column head gives no unit): 1.6
[9]
  ECL signal ratio (column head gives no unit): 1.5

B2: Fab VH3-23_IGHD2-21*01>3_IGHJ6*01 H100E/S108P/Y113G Y110E & V2-13_IGLJ2*01 (Fab, V domains shown)
VH: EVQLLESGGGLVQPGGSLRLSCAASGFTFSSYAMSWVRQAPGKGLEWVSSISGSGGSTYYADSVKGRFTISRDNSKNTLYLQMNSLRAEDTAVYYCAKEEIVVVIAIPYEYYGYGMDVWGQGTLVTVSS
VL: SSELTQDPAVSVALGQTVRITCQGDSLRSYYASWYQQKPGQAPVLVIYGKNNRPSGIPDRFSGSSSGNTASLTITGAQAEDEADYYCNSRDSSGNHLVVFGGGTKLTVL
notes: Tested as Fab made in E. coli: VH joined to CH1 (His and Flag tags), VL joined to lambda CL; also called EPG Y110E
[10]
  ECL multispot signal (ratio to blank; column not labelled): 1.5
[11]
  ECL multispot signal (ratio to blank; column not labelled): 1.3
[12]
  ECL multispot signal (ratio to blank; column not labelled): 1.6
[13]
  ECL multispot signal (ratio to blank; column not labelled): 1.7
[14]
  ECL multispot signal (ratio to blank; column not labelled): 2
[15]
  ECL multispot signal (ratio to blank; column not labelled): 1.8
[16]
  ECL multispot signal (ratio to blank; column not labelled): 1.8
[17]
  ECL multispot signal (ratio to blank; column not labelled): 2.2
[18]
  ECL multispot signal (ratio to blank; column not labelled): 1.4

B3: Fab VH4-28_IGHD7-27*01_IGHJ1*01 & L2_IGKJ1*01 (Fab, V domains shown)
VH: QVQLQESGPGLVKPSDTLSLTCAVSGYSISSSNWWGWIRQPPGKGLEWIGYIYYSGSTYYNPSLKSRVTMSVDTSKNQFSLKLSSVTAVDTAVYYCARTNWGAEYFQHWGQGTLVTVSS
VL: not shown
[19]
  ECL signal: 4720
[20]
  ECL signal: 740
[21]
  ECL signal: 636
[22]
  ECL signal: 581
[23]
  ECL signal: 535
[24]
  ECL signal: 647
[25]
  ECL signal: 2980
[26]
  ECL signal: 679
[27]
  ECL signal: 693
[28]
  ECL signal: 613
[29]
  ECL signal: 486
[30]
  ECL signal: 600
